Earlier results on one substance are cited in PMC6530603.

This series addresses VP30 CTD (Zaire ebolavirus) (UniProt Q77DJ5).

As a reminder, the Kd is a measure of binding affinity in units of concentration. Consider “Nucleoprotein NP C-terminal region peptide (from UniProt P18272)”, for which the Kd was 5.7 µM.
